B1: Protein kinase C and casein kinase substrate in neurons protein 1 (Mus musculus), Q61644 (parent)
chain: MSGSYDEASEEITDSFWEVGNYKRTVKRIDDGHRLCNDLMSCVQERAKIEKAYAQQLTDWAKRWRQLIEKGPQYGSLERAWGAMMTEADKVSELHQEVKNSLLNEDLEKVKNWQKDAYHKQIMGGFKETKEAEDGFRKAQKPWAKKMKELEAAKKAYHLACKEERLAMTREMNSKTEQSVTPEQQKKLVDKVDKCRQDVQKTQEKYEKVLEDVGKTTPQYMEGMEQVFEQCQQFEEKRLVFLKEVLLDIKRHLNLAENSSYMHVYRELEQAIRGADAQEDLRWFRSTSGPGMPMNWPQFEEWNPDLPHTTAKKEKQPKKAEGATLSNATGAVESTSQAGDRGSVSSYDRGQTYATEWSDDESGNPFGGNEANGGANPFEDDAKGVRVRALYDYDGQEQDELSFKAGDELTKLGEEDEQGWCRGRLDSGQLGLYPANYVEAI

Variants of: B1
Conditions: with Mapt

effect of a mutation on the interaction | Variant
disrupting interaction | P434L
